Source: the nanobody polyreactivity screen of Harvey et al. (2022)

Assay: yeast display, Sf9 membrane polyspecificity reagent, FACS + sequencing; frameworks hold sequencing errors
Procedure, shortened: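 A synthetic nanobody library was expressed on Saccharomyces cerevisiae BJ5465 by galactose induction for 36–48 hours. The library was stained for 1 hour at 4 °C with 10% biotinylated, detergent-solubilized Sf9 membrane reagent and enriched with streptavidin microbeads before FACS. Low and high (top ~1%) gates were set on anti-HA fluorescence for expression and streptavidin fluorescence for reagent binding, and each polyreactivity label reflects the gate of origin.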

| Sequence | polyreactivity (PSR sort gate) |
| --- | --- |
| QVQLVESGGGLVQAGGSLRLSCAASGRTFVGNSMGWYRQAPGKERELVADITWSGDITYYADSVKGRFTISRDNAKNTVYLQMNSLKPEDTAVYYCAADYHRRRTDYDYWGQGTQVTVSS | low polyreactivity |
| QVQLVESGGGLVQAGGSLRLSCAASGRTFVGYAIGWSRPATGKERELVAAISRTGGSTYYADSVKGRFTISRDNAKNTVYLQMNSLKPEDTAVYYCNAVTLSSTYGGHDYWGQGTQVTVSS | high polyreactivity |
| QVQLVESGGGLVQAGGSLRLSCAASGRTFVGYAMGWDRQAPGKERELVATITSSGRTNYADSVKGRCTISRDNAKNTVYLQMNSLKPEDTAVYYCNKQRTRWYDYWGQGTQVTVSS | high polyreactivity |
| QVQLVESGGGLVQAGGSLRLSCAASGRTFVGYAMGWYRQAPGKEREFVADITYDSGSTYYADSVKGRFTISRDNAKNTVYLQMNSLKPEETAVYYCAAPDYWAYTRSMDYWGQGTQVTVSS | high polyreactivity |
| QVQLVESGGGLVQAGGSLRLSCAASGRTFVGYVMGWYRQAPGKERDLVAAITSRGGRTYYADSLKGRFTISRDNAKNTVYLQMNSLNPEDTGVYYCYAAHGSRAFFGGYDYWGQGTEVTVSS | high polyreactivity |
| QVQLVESGGGLVQAGGSLRLSCAASGRTFVHYTMGWYRQTPGKDRELVAAISGTGTSTYYADSVKGRFTISRDNAKNTVYLQMNSLKPEDTAVYYCARDPYFGFHIGYPRRDYWGQGTQVTVSS | low polyreactivity |
| QVQLVESGGGLVQAGGSLRLSCAASGRTFVIYAMGWYRQAPGKQRELVAAISKSGGRTYYADSVKGRFTISRDNAKNSVYLQMNSLKPEDTAVYYCNKVLSVSQAGGFDYWGQGTQVTVSS | high polyreactivity |
| QVQLVESGGGLVQAGGSLRLSCAASGRTFVKNAMGWYRQAPGKERELVAISWSTGGTYYADSVKGRFTISRDNAKNTVYLQMNSLKPEDTAVYYCNADWGSVNGYSGYYYWGQGTQVTVSS | low polyreactivity |
| QVQLVESGGGLVQAGGSLRLSCAASGRTFVKYAMGWYRQAPGKERELVAAISWSGGSTYYADSVKGRFTISRDNAKNTVYLQMNSLKPEDTAVYYCNTAQRYRVYRYDYWGQGTQVTVSS | high polyreactivity |
| QVQLVESGGGLVQAGGSLRLSCAASGRTFVNNAMGWYRQAPGKERELVAAISRSGGSTYYADSVKGRFTISRDNAKNTVYLQMNSLKPEDTAVYYCNKASNVRGYEYWGQGTQVTVSS | high polyreactivity |
| QVQLVESGGGLVQAGGSLRLSCAASGRTFVPYAMGWYRQAPGKEREFLAAISWRGGSTYYADSVKGRFTISRDNAKNTVYLQMNSLKPEDTAVYYCAARYKRGFGVRFGYDYWGQGTQVTVSS | high polyreactivity |
| QVQLVESGGGLVQAGGSLRLSCAASGRTFVPYVMGWYRQAPGKERELVAAISSSGGNTYYADSVKGRFTISPDNAKNTVYLQMNSLKPEDTAVYYCAARPRGYVYPGYYYWGQGSQVTVSS | high polyreactivity |
| QVQLVESGGGLVQAGGSLRLSCAASGRTFVRNAKGWYRQAPGKERELVAAITSGGSTYYADSVKGRFTISRDNAKNTVYLQMNSLKPEDTAVYYCAAISTWGTKYDYWGQGTQVTVSS | high polyreactivity |
| QVQLVESGGGLVQAGGSLRLSCAASGRTFVRNAMGWSRQAPGKERELDAAITSGGSTYYADSVKGRFTISRDNAKNTVYLQMNSLKPEDTAVYYCAAVDRRYGPTYKMGYWGQGTQVTVSS | high polyreactivity |
| QVQLVESGGGLVQAGGSLRLSCAASGRTFVRNAMGWYRQAPGKERELVAAISRGGRTNYADSVQGRFTISRDNAKNTVYLKMNSLKPEDTAVYYCATGAGYYFDYDYWGQVTQVTVSS | high polyreactivity |
| QVQLVESGGGLVQAGGSLRLSCAASGRTFVSNAMGWYRQAPGKERELVAAISSSGGSTYYADSVKGRFTISRDNAKNTVYLQMNSLKPEDTAVYYCATYPWYSKYRYDHWGQGTQVTVSS | high polyreactivity |
| QVQLVESGGGLVQAGGSLRLSCAASGRTFVSNSMGWYRQAPGKERELVAAISSSGGSTYYADSVKGRFTISRDNEKNTVYLQMNILKPEETAVYYCANDPWYSKYRYDHWGQGTQVTVSS | high polyreactivity |
| QVQLVESGGGLVQAGGSLRLSCAASGRTFVSYTMVWYRQAPGKERELVAAISSGGSTTYADSVKGRFTISRDNAKNTVYLQKNSLKPEDTAVYYCNARYGWSYWSKYDYWGQGTQVTVSS | high polyreactivity |
| QVQLVESGGGLVQAGGSLRLSCAASGRTFVTNAMGWYRQAPGKERELVAAIRWSSDSTYYADSVKGRFTISRDNAKNTVYLQMNSLKPEDTAVYYCAKQWYVAKISYDYWGQGTQVTVST | high polyreactivity |
| QVQLVESGGGLVQAGGSLRLSCAASGRTFVTNAMGWYRQAPGKERELVAAISSSGGSTYYADSVKGRFTISRDNAKNTVFLQMNSLKPEDTAVYYCAVGGQTKGQYDYWGQGTQVTVSS | low polyreactivity |
| QVQLVESGGGLVQAGGSLRLSCAASGRTFVTNAMGWYRQAPGKERELVATIRFSGGGTYYAVSVKGRFTISRDNAKNTVYLQMNSLKPEDTAVYYCNADSIDPFLYDYWGQGTQVTVSS | low polyreactivity |
| QVQLVESGGGLVQAGGSLRLSCAASGRTFVTYAMGWYRQAPGQERELVAAISASGGSTYYADSVKGRFTISRDNAKNTVYLQMNSLKPEDTAVYYCAKTYFLATPYGYWGQGTQVTVSS | low polyreactivity |
| QVQLVESGGGLVQAGGSLRLSCAASGRTFVTYGMGWYRQAPGKERELVATIRSGTTTNYADSVKGRFTISRDNAKNTVYLQMNSLKPEDTAVYYCNARGLRASSRRYYYWGQGTQVTVSS | high polyreactivity |
| QVQLVESGGGLVQAGGSLRLSCAASGRTFVVNAMGWYRQAPGKERELVAAITRRGGITYYADSVKGRFTISRDNAKNTVYLQMNSLKPEDTAVYYCAADRSYYPDTRTTYGYNYWGQGTQVTVSS | low polyreactivity |
| QVQLVESGGGLVQAGGSLRLSCAASGRTFVVNAMGWYRQAPGKERELVAAIYADSVKGRFTISRDNEKNTVYLQMNSLKPEDTAVYYCAASGGTWVNYRPEYDYWGQGTQVTVSS | low polyreactivity |
| QVQLVESGGGLVQAGGSLRLSCAASGRTFVVYAMGWYRQAPGKERELVAAISWSGGLTYYADSVKGRFTISRDNAKNTVYLQLNSVKPEDTAVYYCAAEVYLYKYVYYYWGQGTQVTVSS | high polyreactivity |
| QVQLVESGGGLVQAGGSLRLSCAASGRTFVWNVMGWYRQAPGKEREFVAAISGGSTYYADSVKGRFTISRDNAKNTVYLQMTSLKPEDTAVYYCAADSKLHPRYEYWGQGTQVTVSS | low polyreactivity |
| QVQLVESGGGLVQAGGSLRLSCAASGRTFVYNAMGWYRPAPGKERELVAAIDGGGDRTYYADSVKGRFTISRDNAKNTVYLQMNSLKPEDTAVYYCARDPGDTYYYSYPEGDYWGQGTQVTVSS | low polyreactivity |
| QVQLVESGGGLVQAGGSLRLSCAASGRTFVYNAMGWYRQAPGKERELVAAIDGGGDRTYYADSVKGRFTISRDNAKNTVYLQMNSLKPEDTAVYYCARDPGDTYYYSYPEGDYWGLGTQVTVSS | low polyreactivity |
| QVQLVESGGGLVQAGGSLRLSCAASGRTFVYNAMGWYRQAPGKERELVAAITSGGRTYYADSVKGRFTISRDNAKNTVYLQMNSLKPEDTAVYYCNAGVGARESDYWGQCTQVTVSS | low polyreactivity |
